Reference: patent US20220040297A1 (Chugai, published 2022)

B1: GLS3000 N53D (antibody, name in Kabat numbering, V domains shown)
VH: QVQLVESGGGVVQPGRSLRLSCAASGFTFSNAWMHWVRQAPGKGLEWVAQIKAKSNNYATYYAESVKGRFTISRDDSKNSLYLQMNSLKTEDTAVYYCRYVHYGAYYGVDAWGQGTTVTVSS
VL: DIVMTQSPLSLPVTPGEPASISCRSSQSLVHSNRNTYLHWYQQKPGQAPRLLIYKVSDRFSGVPDRFSGSGSGTDFTLKISRVEAEDVGVYYCGQGTQVPYTFGQGTKLEIK
notes: one-arm format as m2
B2: GLS3000 N53E (antibody, name in Kabat numbering, V domains shown)
VH: QVQLVESGGGVVQPGRSLRLSCAASGFTFSNAWMHWVRQAPGKGLEWVAQIKAKSNNYATYYAESVKGRFTISRDDSKNSLYLQMNSLKTEDTAVYYCRYVHYGAYYGVDAWGQGTTVTVSS
VL: DIVMTQSPLSLPVTPGEPASISCRSSQSLVHSNRNTYLHWYQQKPGQAPRLLIYKVSERFSGVPDRFSGSGSGTDFTLKISRVEAEDVGVYYCGQGTQVPYTFGQGTKLEIK
notes: one-arm format as m2
B3: GLS3000 N53F (antibody, name in Kabat numbering, V domains shown)
VH: QVQLVESGGGVVQPGRSLRLSCAASGFTFSNAWMHWVRQAPGKGLEWVAQIKAKSNNYATYYAESVKGRFTISRDDSKNSLYLQMNSLKTEDTAVYYCRYVHYGAYYGVDAWGQGTTVTVSS
VL: DIVMTQSPLSLPVTPGEPASISCRSSQSLVHSNRNTYLHWYQQKPGQAPRLLIYKVSFRFSGVPDRFSGSGSGTDFTLKISRVEAEDVGVYYCGQGTQVPYTFGQGTKLEIK
notes: one-arm format as m2
B4: GLS3000 N53G (antibody, name in Kabat numbering, V domains shown)
VH: QVQLVESGGGVVQPGRSLRLSCAASGFTFSNAWMHWVRQAPGKGLEWVAQIKAKSNNYATYYAESVKGRFTISRDDSKNSLYLQMNSLKTEDTAVYYCRYVHYGAYYGVDAWGQGTTVTVSS
VL: DIVMTQSPLSLPVTPGEPASISCRSSQSLVHSNRNTYLHWYQQKPGQAPRLLIYKVSGRFSGVPDRFSGSGSGTDFTLKISRVEAEDVGVYYCGQGTQVPYTFGQGTKLEIK
notes: one-arm format as m2
B5: GLS3000 N53H (antibody, name in Kabat numbering, V domains shown)
VH: QVQLVESGGGVVQPGRSLRLSCAASGFTFSNAWMHWVRQAPGKGLEWVAQIKAKSNNYATYYAESVKGRFTISRDDSKNSLYLQMNSLKTEDTAVYYCRYVHYGAYYGVDAWGQGTTVTVSS
VL: DIVMTQSPLSLPVTPGEPASISCRSSQSLVHSNRNTYLHWYQQKPGQAPRLLIYKVSHRFSGVPDRFSGSGSGTDFTLKISRVEAEDVGVYYCGQGTQVPYTFGQGTKLEIK
notes: one-arm format as m2
B6: GLS3000 N53I (antibody, name in Kabat numbering, V domains shown)
VH: QVQLVESGGGVVQPGRSLRLSCAASGFTFSNAWMHWVRQAPGKGLEWVAQIKAKSNNYATYYAESVKGRFTISRDDSKNSLYLQMNSLKTEDTAVYYCRYVHYGAYYGVDAWGQGTTVTVSS
VL: DIVMTQSPLSLPVTPGEPASISCRSSQSLVHSNRNTYLHWYQQKPGQAPRLLIYKVSIRFSGVPDRFSGSGSGTDFTLKISRVEAEDVGVYYCGQGTQVPYTFGQGTKLEIK
notes: one-arm format as m2
B7: GLS3000 N53K (antibody, name in Kabat numbering, V domains shown)
VH: QVQLVESGGGVVQPGRSLRLSCAASGFTFSNAWMHWVRQAPGKGLEWVAQIKAKSNNYATYYAESVKGRFTISRDDSKNSLYLQMNSLKTEDTAVYYCRYVHYGAYYGVDAWGQGTTVTVSS
VL: DIVMTQSPLSLPVTPGEPASISCRSSQSLVHSNRNTYLHWYQQKPGQAPRLLIYKVSKRFSGVPDRFSGSGSGTDFTLKISRVEAEDVGVYYCGQGTQVPYTFGQGTKLEIK
notes: one-arm format as m2
B8: GLS3000 N53L (antibody, name in Kabat numbering, V domains shown)
VH: QVQLVESGGGVVQPGRSLRLSCAASGFTFSNAWMHWVRQAPGKGLEWVAQIKAKSNNYATYYAESVKGRFTISRDDSKNSLYLQMNSLKTEDTAVYYCRYVHYGAYYGVDAWGQGTTVTVSS
VL: DIVMTQSPLSLPVTPGEPASISCRSSQSLVHSNRNTYLHWYQQKPGQAPRLLIYKVSLRFSGVPDRFSGSGSGTDFTLKISRVEAEDVGVYYCGQGTQVPYTFGQGTKLEIK
notes: one-arm format as m2

Target: CD3ε homodimer protein (human, UniProt P07766 23-126, limits assumed)
Test: SPR, immobilized CD3ε homodimer;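 further: biacore T200 surface plasmon resonance at 25 °C, antibody variants flowed as analytes over amine-coupled CD3ε homodimer on a CM4 chip, variant binding amount divided by that of GLS3000 antibody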

CD3ε homodimer protein, sequence (P07766 23-126 limits assumed): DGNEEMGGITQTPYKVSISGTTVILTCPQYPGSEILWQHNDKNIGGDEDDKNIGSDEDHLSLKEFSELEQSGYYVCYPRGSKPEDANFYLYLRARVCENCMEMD

Row | Binder | ratio of amounts bound (vs GLS3000)
1 | B1 | 0.34
2 | B2 | 0.54
3 | B3 | 0.69
4 | B4 | 0.76
5 | B5 | 1.18
6 | B6 | 0.5
7 | B7 | 1.08
8 | B8 | 0.56
